Source: patent US20260193293A1, “PEPTIDES CAPABLE OF INHIBITING PROTEIN-PROTEIN INTERACTIONS AT GABAB1A SUBUNIT AND USES THEREOF” (UNIVERSITY OF COPENHAGEN, priority 2022, published 2026)
Starred links: 1 amine or outer side, 2 acyl side, 3 side chain; linkers in the order of their positions; H or OH if unused. Non-standard residues stand in square brackets, D forms with d. Tyr(Bzl) = Obtyr, O-benzyl-L-tyrosine, O=C([C@H](Cc1ccc(OCc2ccccc2)cc1)N[*:1])[*:2]; Tyr(Et) = Oetyr, O-ethyl-L-tyrosine, CCOc1ccc(C[C@H](N[*:1])C(=O)[*:2])cc1; Tyr(Me) = Omtyr, O-methyl-L-tyrosine, COc1ccc(C[C@H](N[*:1])C(=O)[*:2])cc1; Obtyr = O-benzyl-L-tyrosine, O=C([C@H](Cc1ccc(OCc2ccccc2)cc1)N[*:1])[*:2]; Oetyr = O-ethyl-L-tyrosine, CCOc1ccc(C[C@H](N[*:1])C(=O)[*:2])cc1; Phe(4-NH2) = Nc1ccc(C[C@H](N)C(=O)O)cc1; 2Nal = N[C@@H](Cc1ccc2ccccc2c1)C(=O)O; Sar = CNCC(=O)O

Legend:
[1] = target: Sushi domains (SD1/2) protein of the GABAB1a (GB1a) subunit, recombinant; assay: FP competition with AJAP-1probe
Sushi domains (SD1/2) protein of the GABAB1a (GB1a) subunit, recombinant, sequence (Q9Z0U4 29-158): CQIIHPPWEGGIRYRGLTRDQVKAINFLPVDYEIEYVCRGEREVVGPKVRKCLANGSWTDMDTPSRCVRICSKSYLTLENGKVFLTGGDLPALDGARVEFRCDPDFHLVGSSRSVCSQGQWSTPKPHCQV

[2] = target: Sushi domains (SD1/2) protein of the GABAB1a (GB1a) subunit, recombinant; assay: FP competition
[3] = target: Sushi domains (SD1/2) protein of GABAB1a (GB1a); assay: FP competition vs TAMRA AJAP-1probe
Sushi domains (SD1/2) protein of GABAB1a (GB1a), sequence (Q9Z0U4 29-158): as above

[4] = target: Sushi domains (SD1/2) protein of the GABAB1a (GB1a) subunit, recombinant; assay: FP competition; remark: listed apart in the source

B1: peptide 12 (…) (peptide)
peptide: Ac-SADAEEDDSDVWWGG-NH2
With B1 the Ki [1] was 1300 nM.

B2: … (peptide)
peptide: Ac-ADAEEDDSDVWWGGA-NH2
B2 gave a Ki [1] of 1530 nM.

B3: peptide 13 (…) (peptide)
peptide: Ac-EDDSDVWWGGADTDY-NH2
With B3 the Ki [1] was 581 nM.

B4: … (peptide)
peptide: Ac-TTETEFIAWGPTGDE-NH2
Work on B4 yielded a Ki [1] of 73 nM.

B5: peptide 14 (…) (peptide)
peptide: Ac-PWAIVWGPTVSREDG-NH2
In the case of B5, the Ki [1] is reported as 465 nM.

B6: … (peptide)
peptide: Ac-WAIVWGPTVSREDGG-NH2
B6 was tested, and the Ki [1] was 1350 nM.

B7: … (peptide)
peptide: Ac-AIVWGPTVSREDGGD-NH2
B7 showed a Ki [1] of 637 nM.

B8: EDDSDVWW(2Nala)GADTD (peptide)
peptide: Ac-EDDSDVWW[2Nal]GADTD-NH2
SMILES: CC(=O)N[C@@H](CCC(=O)O)C(=O)N[C@@H](CC(=O)O)C(=O)N[C@@H](CC(=O)O)C(=O)N[C@@H](CO)C(=O)N[C@@H](CC(=O)O)C(=O)N[C@H](C(=O)N[C@@H](Cc1c[nH]c2ccccc12)C(=O)N[C@@H](Cc1c[nH]c2ccccc12)C(=O)N[C@@H](Cc1ccc2ccccc2c1)C(=O)NCC(=O)N[C@@H](C)C(=O)N[C@@H](CC(=O)O)C(=O)N[C@H](C(=O)N[C@@H](CC(=O)O)C(N)=O)[C@@H](C)O)C(C)C
B8 was tested, and the Ki [2] was 100 nM and the Ki [3] was 75 nM.

B9: AJAP-1WT (Ac-…-NH2) (peptide)
peptide: Ac-ETEFIAWGPTGDED-NH2
B9 was tested, and the Ki [4] was 31 nM and the Ki [2] was 32 nM.

B10: EDDSDVWW(Obtyr)GADTD (peptide)
peptide: Ac-EDDSDVWW[Tyr(Bzl)]GADTD-NH2
SMILES: CC(=O)N[C@@H](CCC(=O)O)C(=O)N[C@@H](CC(=O)O)C(=O)N[C@@H](CC(=O)O)C(=O)N[C@@H](CO)C(=O)N[C@@H](CC(=O)O)C(=O)N[C@H](C(=O)N[C@@H](Cc1c[nH]c2ccccc12)C(=O)N[C@@H](Cc1c[nH]c2ccccc12)C(=O)N[C@@H](Cc1ccc(OCc2ccccc2)cc1)C(=O)NCC(=O)N[C@@H](C)C(=O)N[C@@H](CC(=O)O)C(=O)N[C@H](C(=O)N[C@@H](CC(=O)O)C(N)=O)[C@@H](C)O)C(C)C
For B10, the Ki [2] was 100 nM and the Ki [3] was 88 nM.

B11: EDDSDVWW(Oetyr)GADTD (peptide)
peptide: Ac-EDDSDVWW[Tyr(Et)]GADTD-NH2
SMILES: CCOc1ccc(C[C@H](NC(=O)[C@H](Cc2c[nH]c3ccccc23)NC(=O)[C@H](Cc2c[nH]c3ccccc23)NC(=O)[C@@H](NC(=O)[C@H](CC(=O)O)NC(=O)[C@H](CO)NC(=O)[C@H](CC(=O)O)NC(=O)[C@H](CC(=O)O)NC(=O)[C@H](CCC(=O)O)NC(C)=O)C(C)C)C(=O)NCC(=O)N[C@@H](C)C(=O)N[C@@H](CC(=O)O)C(=O)N[C@H](C(=O)N[C@@H](CC(=O)O)C(N)=O)[C@@H](C)O)cc1
B11 showed a Ki [2] of 100 nM and a Ki [3] of 113 nM.

B12: EDDSDVWW(Omtyr)GADTD (peptide)
peptide: Ac-EDDSDVWW[Tyr(Me)]GADTD-NH2
SMILES: COc1ccc(C[C@H](NC(=O)[C@H](Cc2c[nH]c3ccccc23)NC(=O)[C@H](Cc2c[nH]c3ccccc23)NC(=O)[C@@H](NC(=O)[C@H](CC(=O)O)NC(=O)[C@H](CO)NC(=O)[C@H](CC(=O)O)NC(=O)[C@H](CC(=O)O)NC(=O)[C@H](CCC(=O)O)NC(C)=O)C(C)C)C(=O)NCC(=O)N[C@@H](C)C(=O)N[C@@H](CC(=O)O)C(=O)N[C@H](C(=O)N[C@@H](CC(=O)O)C(N)=O)[C@@H](C)O)cc1
Work on B12 yielded a Ki [2] of 100 nM and a Ki [3] of 109 nM.

B13: EDDSDVWW(Aphe)GADTD (peptide)
peptide: Ac-EDDSDVWW[Phe(4-NH2)]GADTD-NH2
SMILES: CC(=O)N[C@@H](CCC(=O)O)C(=O)N[C@@H](CC(=O)O)C(=O)N[C@@H](CC(=O)O)C(=O)N[C@@H](CO)C(=O)N[C@@H](CC(=O)O)C(=O)N[C@H](C(=O)N[C@@H](Cc1c[nH]c2ccccc12)C(=O)N[C@@H](Cc1c[nH]c2ccccc12)C(=O)N[C@@H](Cc1ccc(N)cc1)C(=O)NCC(=O)N[C@@H](C)C(=O)N[C@@H](CC(=O)O)C(=O)N[C@H](C(=O)N[C@@H](CC(=O)O)C(N)=O)[C@@H](C)O)C(C)C
With B13 the Ki [2] was 100 nM and the Ki [3] was 102 nM.

B14: hybrid peptide X (Ac-…-NH2) (peptide)
peptide: Ac-EDDSDVWWGPTGDED-NH2
B14 gave a Ki [4] of 62 nM and a fold higher affinity than APPWT [2] of 10 fold.

B15: peptide 27 (Ac-…-NH2) (peptide)
peptide: Ac-EDDSWIWWGPTGDED-NH2
B15 gave a Ki [4] of 16 nM and a fold better affinity than 9 [2] of 3.8 fold.

B16: PWAIVWG(N-Me-G)TVSRED (peptide)
peptide: Ac-PWAIVWG[Sar]TVSRED-NH2
SMILES: CC[C@H](C)[C@H](NC(=O)[C@H](C)NC(=O)[C@H](Cc1c[nH]c2ccccc12)NC(=O)[C@@H]1CCCN1C(C)=O)C(=O)N[C@H](C(=O)N[C@@H](Cc1c[nH]c2ccccc12)C(=O)NCC(=O)N(C)CC(=O)N[C@H](C(=O)N[C@H](C(=O)N[C@@H](CO)C(=O)N[C@@H](CCCNC(=N)N)C(=O)N[C@@H](CCC(=O)O)C(=O)N[C@@H](CC(=O)O)C(N)=O)C(C)C)[C@@H](C)O)C(C)C
Work on B16 yielded a Ki [2] of 525 nM and a Ki [3] of 525 nM.

B17: hybrid peptide Y (Ac-…-NH2) (peptide)
peptide: Ac-ETEFIAWGGADTD-NH2
Work on B17 yielded a Ki [4] of 354 nM.

B18: peptide 37 (Ac-…-NH2) (peptide)
peptide: Ac-ETEFIAWYGADTD-NH2
Work on B18 yielded a Ki [4] of 95 nM.

B19: peptide 28 (Ac-…-NH2) (peptide)
peptide: Ac-EDDSWIWWYGADTD-NH2
Binder B19 has a Ki [4] of 18 nM.

B20: peptide 29 (Ac-…-NH2) (peptide)
peptide: Ac-EDDSWIDWGPTGDED-NH2
B20 was tested, and the Ki [4] was 5.6 nM.

B21: peptide 30 (Ac-…-NH2) (peptide)
peptide: Ac-EDDSWIDWYGADTD-NH2
For B21, the Ki [4] was 11 nM.

B22: peptide 16 (Ac-…-NH2) (peptide)
peptide: Ac-EDDDWIDWYDSDDD-NH2
Binder B22 has a Ki [4] of 3.2 nM.

B23: peptide 17 (Ac-…-NH2) (peptide)
peptide: Ac-EDDDWIDWGPTSDDD-NH2
With B23 the Ki [4] was 4 nM.

B24: peptide 18 (Ac-…-NH2) (peptide)
peptide: Ac-EDDYIDWYDSDDD-NH2
For B24, the Ki [4] was 4.6 nM.

B25: peptide 19 (Ac-…-NH2) (peptide)
peptide: Ac-EDDYIDWGPTSDDD-NH2
B25 gave a Ki [4] of 3.8 nM.

B26: peptide 20 (Ac-EDDD(2Nala)…-NH2) (peptide)
peptide: EDDDAIDWYDSDDD
modifications: N-terminal acetyl; C-terminal amide; 3-(2-naphthyl)-L-alanine (2Nala) at 5
With B26 the Ki [4] was 1.5 nM.

B27: peptide 33 (Ac-EDDD(Obtyr)…-NH2) (peptide)
peptide: Ac-EDDD[Obtyr]IDWYDSDDD-NH2
SMILES: CC[C@H](C)[C@H](NC(=O)[C@H](Cc1ccc(OCc2ccccc2)cc1)NC(=O)[C@H](CC(=O)O)NC(=O)[C@H](CC(=O)O)NC(=O)[C@H](CC(=O)O)NC(=O)[C@H](CCC(=O)O)NC(C)=O)C(=O)N[C@@H](CC(=O)O)C(=O)N[C@@H](Cc1c[nH]c2ccccc12)C(=O)N[C@@H](Cc1ccc(O)cc1)C(=O)N[C@@H](CC(=O)O)C(=O)N[C@@H](CO)C(=O)N[C@@H](CC(=O)O)C(=O)N[C@@H](CC(=O)O)C(=O)N[C@@H](CC(=O)O)C(N)=O
Binder B27 has a Ki [4] of 9.3 nM.

B28: peptide 32 (Ac-EDDD(Oetyr)…-NH2) (peptide)
peptide: Ac-EDDD[Oetyr]IDWYDSDDD-NH2
SMILES: CCOc1ccc(C[C@H](NC(=O)[C@H](CC(=O)O)NC(=O)[C@H](CC(=O)O)NC(=O)[C@H](CC(=O)O)NC(=O)[C@H](CCC(=O)O)NC(C)=O)C(=O)N[C@H](C(=O)N[C@@H](CC(=O)O)C(=O)N[C@@H](Cc2c[nH]c3ccccc23)C(=O)N[C@@H](Cc2ccc(O)cc2)C(=O)N[C@@H](CC(=O)O)C(=O)N[C@@H](CO)C(=O)N[C@@H](CC(=O)O)C(=O)N[C@@H](CC(=O)O)C(=O)N[C@@H](CC(=O)O)C(N)=O)[C@@H](C)CC)cc1
B28 was tested, and the Ki [4] was 5.3 nM.

B29: peptide 21 (Ac-EDDD(2Nala)…-NH2) (peptide)
peptide: Ac-EDDD[2Nal]IDWGPTSDDD-NH2
SMILES: CC[C@H](C)[C@H](NC(=O)[C@H](Cc1ccc2ccccc2c1)NC(=O)[C@H](CC(=O)O)NC(=O)[C@H](CC(=O)O)NC(=O)[C@H](CC(=O)O)NC(=O)[C@H](CCC(=O)O)NC(C)=O)C(=O)N[C@@H](CC(=O)O)C(=O)N[C@@H](Cc1c[nH]c2ccccc12)C(=O)NCC(=O)N1CCC[C@H]1C(=O)N[C@H](C(=O)N[C@@H](CO)C(=O)N[C@@H](CC(=O)O)C(=O)N[C@@H](CC(=O)O)C(=O)N[C@@H](CC(=O)O)C(N)=O)[C@@H](C)O
B29 showed a Ki [4] of 5.3 nM.

B30: peptide 35 (Ac-EDDD(Obtyr)…-NH2) (peptide)
peptide: Ac-EDDD[Obtyr]IDWGPTSDDD-NH2
SMILES: CC[C@H](C)[C@H](NC(=O)[C@H](Cc1ccc(OCc2ccccc2)cc1)NC(=O)[C@H](CC(=O)O)NC(=O)[C@H](CC(=O)O)NC(=O)[C@H](CC(=O)O)NC(=O)[C@H](CCC(=O)O)NC(C)=O)C(=O)N[C@@H](CC(=O)O)C(=O)N[C@@H](Cc1c[nH]c2ccccc12)C(=O)NCC(=O)N1CCC[C@H]1C(=O)N[C@H](C(=O)N[C@@H](CO)C(=O)N[C@@H](CC(=O)O)C(=O)N[C@@H](CC(=O)O)C(=O)N[C@@H](CC(=O)O)C(N)=O)[C@@H](C)O
For B30, the Ki [4] was 9.5 nM.

B31: peptide 34 (Ac-EDDD(Oetyr)…-NH2) (peptide)
peptide: Ac-EDDD[Oetyr]IDWGPTSDDD-NH2
SMILES: CCOc1ccc(C[C@H](NC(=O)[C@H](CC(=O)O)NC(=O)[C@H](CC(=O)O)NC(=O)[C@H](CC(=O)O)NC(=O)[C@H](CCC(=O)O)NC(C)=O)C(=O)N[C@H](C(=O)N[C@@H](CC(=O)O)C(=O)N[C@@H](Cc2c[nH]c3ccccc23)C(=O)NCC(=O)N2CCC[C@H]2C(=O)N[C@H](C(=O)N[C@@H](CO)C(=O)N[C@@H](CC(=O)O)C(=O)N[C@@H](CC(=O)O)C(=O)N[C@@H](CC(=O)O)C(N)=O)[C@@H](C)O)[C@@H](C)CC)cc1
B31 was tested, and the Ki [4] was 6.5 nM.
